Data on one molecule can be found in patent CN116284426A (SUNSHINE GUOJIAN PHARMACEUTICAL SHANGHAI CO LTD, dated 2023).

Assay [1] concerns the target T1, GUCY2C-His蛋白 (human GUCY2C extracellular region with C-terminal 6xHis) (human, UniProt P25092 24-430).
T1 construct: extracellular domain; Made in HEK-293F with an unspecified N-terminal signal peptide; also called 人GUCY2C-His蛋白
As to the kind of experiment: ELISA, GUCY2C-His coated, anti-human IgG Fc HRP. (In general: ELISA stands for enzyme-linked immunosorbent assay.)

Assay [2] has as its target T2, GUCY2C-Fc蛋白 (human GUCY2C extracellular region fused to human IgG1 Fc) (human, UniProt P25092 24-430).
T2 construct: extracellular domain; Made in HEK-293F with an unspecified N-terminal signal peptide; also called 人GUCY2C-Fc蛋白; not shown: human IgG1 Fc at the C-terminus in place of the 6xHis tag
Description: ELISA, GUCY2C-Fc coated, anti-human IgG Fab HRP.

Assay [3] deals with T3, GUCY2C on tumour cells (CW2, CW2-GCC#1, T84) (human, UniProt P25092 24-1073).
T3 construct: whole, on cells; Only CW2-GCC#1 is expressly said to express GUCY2C; also called 鸟苷酸环化酶2C; 人结肠癌细胞CW2
T3 sequence (P25092 24-1073): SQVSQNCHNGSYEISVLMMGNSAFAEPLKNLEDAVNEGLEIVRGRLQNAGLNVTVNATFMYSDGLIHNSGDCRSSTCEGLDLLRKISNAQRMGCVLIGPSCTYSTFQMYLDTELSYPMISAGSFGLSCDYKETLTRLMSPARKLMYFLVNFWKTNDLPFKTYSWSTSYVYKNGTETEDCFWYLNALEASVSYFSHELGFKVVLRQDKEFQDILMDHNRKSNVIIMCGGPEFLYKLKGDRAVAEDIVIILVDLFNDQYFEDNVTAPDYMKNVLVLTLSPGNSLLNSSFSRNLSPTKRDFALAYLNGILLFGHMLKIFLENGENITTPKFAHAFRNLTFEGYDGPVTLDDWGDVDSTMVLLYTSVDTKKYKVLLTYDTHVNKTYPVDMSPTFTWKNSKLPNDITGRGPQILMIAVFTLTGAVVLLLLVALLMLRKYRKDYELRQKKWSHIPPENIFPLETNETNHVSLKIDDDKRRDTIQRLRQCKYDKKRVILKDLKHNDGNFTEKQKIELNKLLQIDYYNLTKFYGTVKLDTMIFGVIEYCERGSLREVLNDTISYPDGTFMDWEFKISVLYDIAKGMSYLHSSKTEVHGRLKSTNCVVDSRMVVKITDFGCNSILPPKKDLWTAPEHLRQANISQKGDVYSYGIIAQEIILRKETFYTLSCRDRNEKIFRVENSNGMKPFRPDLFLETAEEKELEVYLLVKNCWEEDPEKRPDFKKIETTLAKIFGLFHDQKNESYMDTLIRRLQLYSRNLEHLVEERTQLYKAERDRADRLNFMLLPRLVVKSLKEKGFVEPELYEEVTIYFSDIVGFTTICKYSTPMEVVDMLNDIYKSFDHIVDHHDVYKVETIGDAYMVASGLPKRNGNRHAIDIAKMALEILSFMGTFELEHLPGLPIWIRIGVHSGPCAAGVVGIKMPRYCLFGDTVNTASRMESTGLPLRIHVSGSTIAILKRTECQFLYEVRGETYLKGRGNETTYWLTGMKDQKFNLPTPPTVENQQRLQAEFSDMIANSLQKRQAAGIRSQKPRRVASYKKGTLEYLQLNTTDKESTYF
Description: flow cytometry on CW2-GCC#1 cells (GUCY2C-overexpressing CW2). Background: A flow cytometer gives signals particle by particle.

In assay [4] the target is T1, GUCY2C-His蛋白 (human GUCY2C …). Description: ELISA, GUCY2C-His coated, anti-human IgG Fab HRP (Table 9).
Assay [5] addresses T2, GUCY2C-Fc蛋白 (human GUCY2C extracellular …). Description: ELISA, GUCY2C-Fc coated, anti-human IgG Fab HRP (Table 11).
Assay [6] has the same target. As to the kind of experiment: ELISA, GUCY2C-Fc coated, anti-human IgG Fab HRP (Table 18).
Assay [7] deals with T1, GUCY2C-His蛋白 (human GUCY2C …). As to the kind of experiment: ELISA, GUCY2C-His coated, anti-human IgG Fab HRP (Table 17).

T2 sequence (P25092 24-430 limits assumed): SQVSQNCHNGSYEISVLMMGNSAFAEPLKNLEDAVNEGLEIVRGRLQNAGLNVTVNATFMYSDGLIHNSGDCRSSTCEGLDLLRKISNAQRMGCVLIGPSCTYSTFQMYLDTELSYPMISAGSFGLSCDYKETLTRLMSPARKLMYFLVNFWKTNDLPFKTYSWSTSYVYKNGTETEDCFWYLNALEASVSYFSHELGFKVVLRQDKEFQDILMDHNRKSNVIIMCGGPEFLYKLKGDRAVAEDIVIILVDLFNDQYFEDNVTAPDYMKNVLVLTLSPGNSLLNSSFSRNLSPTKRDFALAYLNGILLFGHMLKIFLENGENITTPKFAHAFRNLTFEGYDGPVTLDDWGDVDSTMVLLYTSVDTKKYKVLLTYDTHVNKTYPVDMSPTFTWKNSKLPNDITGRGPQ
T1 sequence (P25092 other isoform, or with tags, fused parts or gaps): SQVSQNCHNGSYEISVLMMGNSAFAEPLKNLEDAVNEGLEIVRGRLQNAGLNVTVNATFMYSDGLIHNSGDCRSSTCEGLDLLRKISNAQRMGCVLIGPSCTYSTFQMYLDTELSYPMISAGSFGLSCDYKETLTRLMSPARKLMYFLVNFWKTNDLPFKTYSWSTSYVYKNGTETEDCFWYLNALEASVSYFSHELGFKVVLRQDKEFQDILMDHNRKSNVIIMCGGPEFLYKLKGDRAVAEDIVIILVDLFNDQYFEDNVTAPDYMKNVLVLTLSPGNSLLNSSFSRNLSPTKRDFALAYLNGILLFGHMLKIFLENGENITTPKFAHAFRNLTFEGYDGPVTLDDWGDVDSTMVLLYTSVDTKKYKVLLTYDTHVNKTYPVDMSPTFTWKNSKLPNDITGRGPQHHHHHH

B1: 32H2-Hu (antibody, V domains shown)
VH: EVQLVESGGGLVKPGGSLRLSCAASGFSFRTYAMSWVRQAPGKSLEWVATISSGSSYIYYPDSVKGRFTVSRDNAKNSLYLQMNSLRAEDTAVYYCTCYRMETFEYWGQGTLVTVSS
VL: DVVMTQSPLSLPVTLGQPASISCRSSQSLVYNNGNTYLHWYQQRPGQSPRLLIYKVSNRFSGVPDRFSGSGSGTDFTLKISRVEAEDVGVYFCSQSTHVPLTFGQGTKVEIKR
Take B1: the EC50 is 0.468 nM in assay [1]; 0.452 nM in assay [2]; 96.3 nM in assay [3]; 0.24 nM in assay [4]; 0.23 nM in assay [5]; 0.759 nM in assay [6]. The EC50 in assay [7] was 0.244 nM.

For orientation: EC50 means the midpoint of the concentration-response curve. The low end stands for greater potency, the high end for weaker potency.
